# Columns and labels:
# Assay type in all cases: biochemical
# NEP = NEP (Homo sapiens, UniProt P08473); experiment: PACAP(1-27) cleavage by recombinantly produced NEP; conditions: assay conditions as for IGS5
# Method: (§1) A quantity of 80 μl of the assay buffer, 10 μl of enzyme working solution (5 μg/ml) and 10 μl of substrate stock solution (PACAP(1-27)) were mixed in an Eppendorf vial and incubated for 120 min. at 37° C. The enzymatic reaction was subsequently terminated by heating to 95° C. for 5 min. After centrifugation (Heraeus Biofuge B, 3 min) the supernatant was subjected to HPLC
# (§2) In addition, it was also analysed whether PACAP(1-27) is cleaved by other recombinantly produced metalloproteases of the M13 family, such as NEP, ECE-1 and XCE/DINE. […] The data summarized herein indicate that PACAP(1-27) might be the physiologically relevant substrate of hSEP.
# XCE/DINE = target: T1, XCE/DINE (Homo sapiens, UniProt O95672); experiment: PACAP(1-27) cleavage by recombinantly produced XCE/DINE; conditions: assay conditions as for IGS5
# T1 sequence (O95672 1-775): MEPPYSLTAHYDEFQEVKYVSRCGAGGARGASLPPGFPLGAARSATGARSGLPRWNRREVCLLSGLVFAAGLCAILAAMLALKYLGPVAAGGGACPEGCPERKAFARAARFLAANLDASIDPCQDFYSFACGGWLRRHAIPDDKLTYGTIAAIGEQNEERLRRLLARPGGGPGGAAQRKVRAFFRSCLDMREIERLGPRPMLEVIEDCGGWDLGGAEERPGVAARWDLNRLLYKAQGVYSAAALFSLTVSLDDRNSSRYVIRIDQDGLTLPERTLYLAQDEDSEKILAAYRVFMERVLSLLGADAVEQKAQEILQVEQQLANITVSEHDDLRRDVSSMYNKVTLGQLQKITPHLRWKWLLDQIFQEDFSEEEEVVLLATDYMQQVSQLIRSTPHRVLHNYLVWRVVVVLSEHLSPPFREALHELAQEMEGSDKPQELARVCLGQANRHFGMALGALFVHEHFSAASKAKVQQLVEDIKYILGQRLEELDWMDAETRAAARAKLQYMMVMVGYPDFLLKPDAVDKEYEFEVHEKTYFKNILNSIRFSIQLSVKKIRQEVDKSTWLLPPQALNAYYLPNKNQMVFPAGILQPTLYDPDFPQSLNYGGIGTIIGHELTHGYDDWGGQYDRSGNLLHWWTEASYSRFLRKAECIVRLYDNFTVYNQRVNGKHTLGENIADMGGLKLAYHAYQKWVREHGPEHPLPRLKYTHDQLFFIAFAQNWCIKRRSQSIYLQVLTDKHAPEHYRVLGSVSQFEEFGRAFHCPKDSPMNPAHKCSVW
# Method: as §1, §2
# ECE-1 = target: T2, ECE-1 (Homo sapiens, UniProt P42892); experiment: PACAP(1-27) cleavage by recombinantly produced ECE-1; conditions: assay conditions as for IGS5
# T2 sequence (P42892 1-770): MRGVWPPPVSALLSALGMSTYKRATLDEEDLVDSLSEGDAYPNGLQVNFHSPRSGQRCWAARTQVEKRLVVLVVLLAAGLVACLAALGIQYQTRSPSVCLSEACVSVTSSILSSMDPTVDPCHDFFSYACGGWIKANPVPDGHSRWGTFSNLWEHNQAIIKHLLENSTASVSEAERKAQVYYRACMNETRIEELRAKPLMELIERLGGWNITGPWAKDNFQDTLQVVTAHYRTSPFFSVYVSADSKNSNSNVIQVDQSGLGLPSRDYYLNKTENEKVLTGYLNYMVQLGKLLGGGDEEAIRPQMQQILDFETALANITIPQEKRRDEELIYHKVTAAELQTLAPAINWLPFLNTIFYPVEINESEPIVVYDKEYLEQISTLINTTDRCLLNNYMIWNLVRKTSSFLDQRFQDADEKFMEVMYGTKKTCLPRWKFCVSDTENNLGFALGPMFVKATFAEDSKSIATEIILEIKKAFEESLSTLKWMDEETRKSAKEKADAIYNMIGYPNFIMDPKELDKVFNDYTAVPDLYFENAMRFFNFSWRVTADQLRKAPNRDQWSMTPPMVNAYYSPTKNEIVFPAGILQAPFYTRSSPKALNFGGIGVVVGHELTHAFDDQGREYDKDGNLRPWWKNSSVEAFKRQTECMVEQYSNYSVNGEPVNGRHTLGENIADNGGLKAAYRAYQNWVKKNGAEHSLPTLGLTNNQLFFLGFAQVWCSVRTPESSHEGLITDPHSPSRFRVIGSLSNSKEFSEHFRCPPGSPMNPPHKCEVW
# Method: as §1, §2
# [1] = target: T3, IGS5 polypeptide (His6-tagged IGS5 ectodomain) (Homo sapiens, UniProt Q495T6, V306M); experiment: Hydrolysis of vasoactive peptides and PACAP(1-27) by IGS5 polypeptide (HPLC); conditions: 100 μl assay volume; 100 ng IGS5 polypeptide; 0.5 μM substrate; 2 h, 37° C.
# T3 construct: made in house; host or cells: Spodoptera frugiperda Sf9 (baculovirus IGBV73)
# T3 sequence (Q495T6 with tags, fused parts or gaps V306M): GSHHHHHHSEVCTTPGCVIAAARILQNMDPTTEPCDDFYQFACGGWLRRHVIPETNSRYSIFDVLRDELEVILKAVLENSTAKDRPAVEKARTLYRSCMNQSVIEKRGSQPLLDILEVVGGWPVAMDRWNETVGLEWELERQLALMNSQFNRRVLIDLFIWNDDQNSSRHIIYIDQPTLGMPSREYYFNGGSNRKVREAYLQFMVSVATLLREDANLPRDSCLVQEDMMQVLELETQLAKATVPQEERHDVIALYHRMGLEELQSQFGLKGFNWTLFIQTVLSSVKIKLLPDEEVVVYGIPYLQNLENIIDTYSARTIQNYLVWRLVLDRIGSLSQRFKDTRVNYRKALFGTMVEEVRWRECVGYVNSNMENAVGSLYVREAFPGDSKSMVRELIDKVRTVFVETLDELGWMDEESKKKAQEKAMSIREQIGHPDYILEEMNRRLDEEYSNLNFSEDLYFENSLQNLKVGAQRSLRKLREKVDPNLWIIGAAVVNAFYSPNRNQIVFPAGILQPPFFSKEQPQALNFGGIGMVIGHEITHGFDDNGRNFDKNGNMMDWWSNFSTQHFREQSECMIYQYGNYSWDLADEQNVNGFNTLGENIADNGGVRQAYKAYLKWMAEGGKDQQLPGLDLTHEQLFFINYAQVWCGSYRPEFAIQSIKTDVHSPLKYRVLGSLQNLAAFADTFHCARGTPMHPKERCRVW
# Method: The enzymatic activity of IGS5 polypeptides of the invention was tested with regard to the metabolism of biologically active peptides. In particular it was tested whether these IGS5 polypeptides may act on a variety of vasoactive peptides known in the state of the art e.g. such like atrial natriuretic peptide (ANP), bradykinin, big endothelin (Big ET-1), endothelin (ET-1), substance P and angiotensin-1. In the context of the present invention in particular it was tested whether the IGS5 ectodomain, which is a novel human metalloprotease, hydrolyzes said vasoactive peptides. For comparison the assay was also performed for a known member of the metalloprotease family which was described earlier as soluble secreted endopeptidase (SEP) by Ikeda, Emoto et al. (J. Biol. Chem., Vol. 274 (1999): pp. 32469-32477). Furthermore, it was tested whether the activity of IGS5 to convert a Big-ET-1 analogue (the so-called 17 aa Big-ET) may be inhibited by reference compounds that are used to determine the inhibition properties with regard to enzymes having ECE and/or NEP-characteristics. […] It was then checked whether the activity of IGS5 to convert PACAP(1-27) may be inhibited by a compound known to be a IGS5 inhibitor. The compound used to test the inhibition of IGS5-activity on PACAP(1-27) was the active metabolite of (3S,2′R)-3-{1-[2′-(ethoxycarbonyl)-4′-phenylbutyl]-cyclopentane-1-carbonylamino}-2,3,4,5-tetrahydro-2-oxo-1H-1-benzazepine-1-acetic acid (compound Ia-2 from WO 02/094176).
# The enzymatic reaction was subsequently terminated by heating to 95° C. for 5 min. After centrifugation (Heraeus Biofuge B, 3 min) the supernatant was subjected to HPLC
# In order to separate the remaining substrate from the cleavage products reversed phase HPLC technique was used with a CC 125/4 Nucleosil 300/5 C18 RP column and a CC 8/4 Nucleosil 100/5 C18 precolumn (commercially available from Macherey-Nagel, Duren, Germany). Thus, 60 μl of the reaction samples obtained in Example 7B were injected into the HPLC, and the column was eluted at a flow rate of 1 ml/min by applying the following gradient and solutions: […]
# Peptides were detected by absorbance at 214 nm (UV spectroscopy) and/or by fluorescence with an excitation wavelength of 328 nm and an emission wavelength of 393 nm.
# % Hydrolysis: For detection of substrate cleavage, the percentage of hydrolysis was calculated by directly comparing the substance peak areas in HPLC traces of the sample without addition of any IGS5 enzyme activity (blank) and of the samples with addition of IGS5 enzyme (sample). % hydrolysis was calculated on basis of the respective peak areas. % hydrolysis=100*(1−(Asample/Ablank))
# NEP, sequence (P08473 whole entry): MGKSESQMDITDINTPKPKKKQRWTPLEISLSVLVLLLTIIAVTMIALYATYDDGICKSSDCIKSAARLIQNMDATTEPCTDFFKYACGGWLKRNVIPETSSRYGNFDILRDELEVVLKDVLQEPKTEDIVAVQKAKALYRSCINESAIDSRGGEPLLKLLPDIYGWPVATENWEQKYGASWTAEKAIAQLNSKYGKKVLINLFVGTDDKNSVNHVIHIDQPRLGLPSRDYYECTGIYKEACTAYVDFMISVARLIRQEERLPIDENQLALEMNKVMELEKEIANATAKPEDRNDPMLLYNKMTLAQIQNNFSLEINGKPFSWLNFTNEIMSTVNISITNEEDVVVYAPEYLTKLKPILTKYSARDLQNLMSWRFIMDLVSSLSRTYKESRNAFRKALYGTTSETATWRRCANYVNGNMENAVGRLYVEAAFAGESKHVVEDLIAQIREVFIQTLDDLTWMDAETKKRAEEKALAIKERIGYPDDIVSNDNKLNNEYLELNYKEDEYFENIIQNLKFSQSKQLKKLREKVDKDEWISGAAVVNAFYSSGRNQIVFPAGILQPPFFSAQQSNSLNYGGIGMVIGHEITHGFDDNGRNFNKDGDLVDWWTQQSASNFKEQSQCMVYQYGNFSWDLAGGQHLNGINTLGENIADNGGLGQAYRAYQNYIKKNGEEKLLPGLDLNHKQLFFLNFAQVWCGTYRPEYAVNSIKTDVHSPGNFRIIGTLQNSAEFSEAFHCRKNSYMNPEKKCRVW
substance,measurement,setting,value
His-Ser-Asp-Gly-Ile-Phe-Thr-Asp-Ser-Tyr-Ser-Arg-Tyr-Arg-Lys-Gln-Met-Ala-Val-Lys-Lys-Tyr-Leu-Ala-Ala-Val-Leu [PACAP (1-27)],Cleavage of PACAP(1-27) by NEP,NEP,None of the aforementioned enzymes was able to cleave
same,Cleavage of PACAP(1-27) by XCE/DINE,XCE/DINE,None of the aforementioned enzymes was able to cleave
same,Cleavage of PACAP(1-27) by ECE-1,ECE-1,None of the aforementioned enzymes was able to cleave
same,% Hydrolysis by IGS5 Polypeptide,[1],69%
